One may read the Kd as the free concentration of one partner at which half of the binding sites on the other are occupied at equilibrium, for simple one-to-one binding. A word on the koff: it is the first-order rate constant of dissociation. By kon is commonly meant the second-order rate constant of association.

Experimental findings from patent publication US20220153839A1 (NBE THERAPEUTICS, published 2022) are described below.

In one assay the target is T1, hROR2 (human, UniProt Q01974).
T1 construct: full length, on the cell surface; also called 63-12 / hROR2; ROR2 on T47D cells
T1 sequence (Q01974 34-943 limits assumed): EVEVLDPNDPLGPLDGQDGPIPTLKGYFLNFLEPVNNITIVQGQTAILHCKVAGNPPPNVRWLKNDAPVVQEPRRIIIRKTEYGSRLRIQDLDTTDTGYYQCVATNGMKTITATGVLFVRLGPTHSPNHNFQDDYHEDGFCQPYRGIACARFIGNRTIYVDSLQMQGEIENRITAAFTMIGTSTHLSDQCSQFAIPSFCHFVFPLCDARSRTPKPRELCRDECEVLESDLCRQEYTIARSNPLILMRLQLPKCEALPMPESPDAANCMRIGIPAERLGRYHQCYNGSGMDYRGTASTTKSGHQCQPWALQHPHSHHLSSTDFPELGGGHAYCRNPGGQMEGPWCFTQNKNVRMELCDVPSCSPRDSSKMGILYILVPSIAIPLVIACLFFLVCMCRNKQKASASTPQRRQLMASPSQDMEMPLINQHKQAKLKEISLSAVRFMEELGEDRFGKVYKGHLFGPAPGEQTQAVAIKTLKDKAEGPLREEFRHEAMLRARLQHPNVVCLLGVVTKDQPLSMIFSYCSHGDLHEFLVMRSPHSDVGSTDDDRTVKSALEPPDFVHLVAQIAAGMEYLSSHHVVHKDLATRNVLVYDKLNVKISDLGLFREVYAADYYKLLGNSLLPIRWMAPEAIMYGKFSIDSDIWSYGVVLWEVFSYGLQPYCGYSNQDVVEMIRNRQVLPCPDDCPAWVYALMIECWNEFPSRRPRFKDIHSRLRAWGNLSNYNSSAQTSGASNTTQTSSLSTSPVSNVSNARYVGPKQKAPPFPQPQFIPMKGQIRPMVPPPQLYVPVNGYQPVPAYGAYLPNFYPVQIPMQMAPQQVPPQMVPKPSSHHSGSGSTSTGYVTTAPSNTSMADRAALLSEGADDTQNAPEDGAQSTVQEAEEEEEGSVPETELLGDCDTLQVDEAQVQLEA
The assay is described as follows: flow cytometry on T47D cells (ROR2 positive, ROR1 negative); APC goat anti-human Fcγ. As for the experimental part: Flow cytometry: Cells were stained using standard flow cytometry methodology. Briefly, for purified anti-ROR1 Fab (FIG. 3), 0.1-1×10⁶ cells were stained with 1000 ng/100 μL of Fab on ice for 1 h. After washing twice with ice-cold flow cytometry buffer (PBS containing 1% (v/v) BSA, 0.1% sodium azide and 1 mM EDTA), the cells were incubated with a 1:1000 dilution of a mouse anti-His tag mAb conjugated to Alexa Fluor 488 (Qiagen) in 100 μL flow cytometry buffer on ice for 30 min. For purified anti-ROR1 IgG1 (FIG. 8), 0.1-1×10⁶ cells were blocked by 4% goat serum for 15 min at room temperature and then incubated with 100 ng/100 μL of IgG on ice for 1 h. After washing twice with ice-cold flow cytometry buffer, cells were stained with a 1:500 dilution of goat anti-human IgG, Fcγ pAbs conjugated to APC (Jackson ImmunoResearch) in 100 μL flow cytometry buffer on ice for 30 min. For commercial goat anti human ROR1 polyclonal antibody (FIG. 8), 0.1-1×10⁶ cells were stained with 200 ng/100 μL of Ab on ice for 1 h. […] Finally, 4′,6-diamidino-2-phenylindole (DAPI) was added to a final concentration of 100 ng/mL to exclude dead cells from the analysis. Cells were analyzed using a FACSCalibur instrument (BD Biosciences) and FlowJo analytical software (Tree Star, Ashland, Oreg.).
A general note: Flow cytometry measures light scatter and fluorescence of single cells or particles in a stream.

Assay [1] deals with T2, human ROR2 on HEK293 cells (cell microarray) (human, UniProt Q01974 34-943).
T2 construct: whole, on cells; Expressed on fixed HEK293 cells of the Retrogenix microarray
T2 sequence (Q01974 34-943): as the sequence (Q01974 34-943 limits assumed) above
Description: cell microarray (Retrogenix): fixed HEK293 cells over-expressing the protein; AlexaFluor647 anti-human IgG Fc detection. Here is the method:
(§1) ZsGreen1 signals on the left indicate the expression levels of the various human membrane proteins.
(§2) FIG. 28 provides an overview of the Retrogenix Cell Microarray Platform. […] An AlexaFluor647 anti-human IgG Fc detection antibody was used. Primary hits (duplicate spots) were identified by analyzing fluorescence (AlexaFluor647 and ZsGreen1) on ImageQuant. Vectors encoding all hits were sequenced to confirm their correct identities. […] Slides were analyzed as before (FIG. 29).

In assay [2] the target is T3, human CD20 on HEK293 cells (cell microarray) (human, UniProt P11836 1-297).
T3 construct: whole, on cells; Expressed on fixed HEK293 cells of the Retrogenix microarray
T3 sequence (looked up): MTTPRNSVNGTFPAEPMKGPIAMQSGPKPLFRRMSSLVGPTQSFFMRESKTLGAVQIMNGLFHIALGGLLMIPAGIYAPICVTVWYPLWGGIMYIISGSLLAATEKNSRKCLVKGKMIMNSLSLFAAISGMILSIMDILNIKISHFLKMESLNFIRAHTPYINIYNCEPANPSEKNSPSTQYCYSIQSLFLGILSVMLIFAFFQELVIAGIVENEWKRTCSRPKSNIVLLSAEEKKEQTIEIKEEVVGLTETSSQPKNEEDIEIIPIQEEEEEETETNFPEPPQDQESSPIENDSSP
The description is as above. Here is the method: as §1, §2

A further assay addresses T4, hROR2-ECD-HIS (human, UniProt Q01974).
T4 construct: extracellular domain; also called hROR2-His; purified extracellular domain of hROR2
The assay is described as follows: Western blot of denatured, reduced samples; anti-human Fcγ-HRP. From the text:
The Western blots contained the following samples as indicated: Lane 1: K562 cells ectopically expressing full length of hROR1. Lane 2: untransfected K62 cells. Lane 3: purified extracellular domain of hROR1. Lane 4: purified extracellular domain of hROR2.
Western blotting: Cells or proteins were lysed by 1× sample buffer (containing 1% β-mercaptoethanol) and boiled before running on NuPAGE Novex 4-12% Bis-Tris gels (Invitrogen).
(In general: A western blot detects proteins with antibodies after separation by electrophoresis.)

For assay [3], the target named is T5, StrepII-tagged human ROR1 extracellular domain (human, UniProt Q01973 30-406).
T5 construct: extracellular domain; also called ROR1-strep; strep-tagged human ROR1
T5 sequence (Q01973 other isoform, or with tags, fused parts or gaps): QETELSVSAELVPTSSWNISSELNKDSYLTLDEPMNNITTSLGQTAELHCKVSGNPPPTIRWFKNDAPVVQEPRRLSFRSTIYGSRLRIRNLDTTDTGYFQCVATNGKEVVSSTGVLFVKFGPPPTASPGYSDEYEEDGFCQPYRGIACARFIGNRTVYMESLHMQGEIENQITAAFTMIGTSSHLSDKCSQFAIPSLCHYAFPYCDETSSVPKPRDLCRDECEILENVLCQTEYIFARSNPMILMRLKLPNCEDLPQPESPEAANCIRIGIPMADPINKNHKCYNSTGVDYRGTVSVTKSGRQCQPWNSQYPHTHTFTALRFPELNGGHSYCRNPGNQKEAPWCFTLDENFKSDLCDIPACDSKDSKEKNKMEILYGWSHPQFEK
The assay is described as follows: SPR (Biacore T200); mAb captured by goat anti-human Fcγ IgG on CM5; ROR1-strep as analyte (Example 8); first of two independent measurements; batch of the parental IgG not stated. Here is the method: (§3) Affinity screening was then performed to select the best binders. Affinities were determined using a Biacore T200 instrument (GE Healthcare, Buckinghamshire, UK) and data was evaluated using Biacore Evaluation T200 V2.0 software. To capture mAbs, goat α-human Fc-gamma-specific IgG (Jackson ImmunoResearch, #109-005-098) was covalently immobilized on a CM5 chip (GE Healthcare, #BR-1005-30).

Assay [4] addresses T5, StrepII-tagged human ROR1 extracellular …. Description: SPR (Biacore T200); mAb captured by goat anti-human Fcγ IgG on CM5; ROR1-strep as analyte (Example 8); second of two independent measurements; batch of the parental IgG not stated. As for the experimental part: as §3
Briefly, for capturing mAbs in HEK293T supernatants, the undiluted supernatants were captured with a flow of 30 μl/min for 120 s.
On the technique in general: Surface plasmon resonance follows binding to a sensor surface in real time, without labels.

T4 sequence (Q01974 34-403): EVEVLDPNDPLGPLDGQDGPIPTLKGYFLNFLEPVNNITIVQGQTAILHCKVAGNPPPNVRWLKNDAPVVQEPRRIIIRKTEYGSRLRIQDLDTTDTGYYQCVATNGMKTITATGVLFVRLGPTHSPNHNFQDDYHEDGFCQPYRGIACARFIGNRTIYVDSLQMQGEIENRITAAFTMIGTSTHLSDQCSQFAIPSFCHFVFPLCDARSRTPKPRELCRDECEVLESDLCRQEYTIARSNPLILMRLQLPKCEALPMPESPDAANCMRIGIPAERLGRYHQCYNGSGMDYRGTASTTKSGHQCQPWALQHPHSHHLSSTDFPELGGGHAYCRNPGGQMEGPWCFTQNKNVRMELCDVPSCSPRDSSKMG

B1: XBR1-402 chimeric rabbit/human IgG1 (antibody, V domains shown)
VH: QEQQKESGGGLFKPTDTLTLTCTASGFDISSYYMSWVRQAPGNGLEWIGAIGISGNAYYASWAKSRSTITRNTNLNTVTLKMTSLTAADTATYFCARDHPTYGMDLWGPGTLVTVSS
VL: SYELTQLPSVSVSLGQTARITCEGNNIGSKAVHWYQQKPGLAPGLLIYDDDERPSGVPDRFSGSNSGDTATLTISGAQAGDEADYYCQVWDSSAYVFGGGTQLTVTG
notes: Rabbit variable domains on human IgG1 constant regions (vector PIGG), lambda light chain, from HEK 293F cells, Protein A purified
In the case of B1, the binding result with hROR2 is recorded as “no binding (tested: 100 ng/100 µL)”; in assay [1], “no binding (tested: 20 µg/mL)”; in assay [2] it was “no binding (tested: 20 µg/mL)”; with hROR2-ECD-HIS, “no binding (tested: 2 µg/mL)”. The Kd in assay [3] and in assay [4] was 5.1 nM throughout. For the same molecule, the values for the koff in assay [3] and in assay [4] were 0.00591 s⁻¹ and 0.00556 s⁻¹, respectively. In addition, the kon in assay [3] is 1.16e+06 M⁻¹ s⁻¹; in assay [4] it was 1.1e+06 M⁻¹ s⁻¹.
